Drawing on US20120058906A1 (published 2012), this text covers ECL signal for 2 molecules.

Test [1] has as its target T1, rHuman Erythropoietin R/Fc Chimera, CF (R&D Systems Cat#963-ER) (human, UniProt P19235 25-250).
T1 construct: Bought reagent; also called EPO R/Fc; Epo R; Fc part of the bought chimera not given
T1 sequence: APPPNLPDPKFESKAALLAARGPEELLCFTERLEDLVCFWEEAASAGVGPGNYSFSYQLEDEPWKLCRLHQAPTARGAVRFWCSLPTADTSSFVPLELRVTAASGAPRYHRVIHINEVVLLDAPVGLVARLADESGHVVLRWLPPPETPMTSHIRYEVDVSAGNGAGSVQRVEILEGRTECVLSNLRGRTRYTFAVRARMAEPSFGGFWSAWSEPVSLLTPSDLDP
Briefly: ECL (MSD multi-spot), antigen spotted on plate; Fab 11 nM; blank spot 212.

For test [2], the target named is T2, Recombinant Human DLL4 (R&D Systems Cat#1506-D4/CF) (human, UniProt Q9NR61 27-524).
T2 construct: Bought reagent; also called delta-like protein 4
The description is as above.

Test [3] addresses T3, rHuman ErbB2/Fc Chimera, CF (R&D Systems Cat#1129-ER) (human, UniProt P04626 23-652).
T3 construct: Bought reagent; also called HER2/neu; human epidermal growth factor 2 receptor; Fc part of the bought chimera not given
Described as above.

The target in test [4] is T4, rHuman EGF R/Fc Chimera, CF (R&D Systems Cat#344-ER) (human, UniProt P00533 25-645).
T4 construct: Bought reagent; also called epidermal growth factor receptor; Fc part of the bought chimera not given
Described as above.

Test [5] has as its target T5, rHuman HGF R/c-MET/Fc Chimera, CF (R&D Systems Cat#358-MT/CF) (human, UniProt P08581 25-932).
T5 construct: Bought reagent; also called HGF R/Fc; hepatocyte growth factor receptor; Fc part of the bought chimera not given
The description is as above.

Test [6] concerns the target T6, rHuman Notch-1/Fc Chimera, CF (R&D Systems Cat#3647-TK) (human, UniProt P46531 19-526).
T6 construct: Bought reagent; Fc part of the bought chimera not given
The test is described as above.

Test [7] concerns the target T7, rHuman CD44/Fc Chimera, CF (R&D Systems Cat#3660-CD) (human, UniProt P16070 21-220).
T7 construct: Bought reagent; Fc part of the bought chimera not given
The test is described as above.

For test [8], the target named is T8, rHuman IGF-1 sR (IGF-1 sR), CF (R&D Systems Cat#391-GR) (human, UniProt P08069 31-932).
T8 construct: Bought soluble receptor; also called insulin-like growth factor-1 soluble receptor; IGF-R1
The description is as above.

Test [9] concerns the target T9, rHuman P-Cadherin/Fc Chimera, CF (R&D Systems Cat#861-PC) (human, UniProt P22223 108-654).
T9 construct: Bought reagent; also called CDH3; Fc part of the bought chimera not given
The test is described as above.

Test [10] addresses T10, rHuman IGF-1 sR (insulin-like growth factor-1 soluble receptor), CF (R&D Systems Cat#391-GR) (human, UniProt P08069 31-932).
T10 construct: Bought soluble receptor; also called IGF-R1
Briefly: MSD ECL titration, Fab 2383 nM, blank 344.

Test [11] concerns the target T11, Recombinant Human DLL4 (R&D Systems Cat#1506-D4/CF) (human, UniProt Q9NR61 27-524).
T11 construct: Bought recombinant protein; also called rHuman DLL4; delta-like protein 4
Briefly: MSD ECL titration, Fab 2383 nM, blank 344.

Test [12] has as its target T12, rHuman ErbB2/Fc Chimera, CF (R&D Systems Cat#1129-ER) (human, UniProt P04626 23-652).
T12 construct: Bought Fc chimera; also called HER2/neu; Fc part of the bought chimera not given
Kind of test: MSD ECL titration, Fab 2383 nM, blank 344.

The target of test [13] is T13, rHuman EGF R/Fc Chimera, CF (R&D Systems Cat#344-ER) (human, UniProt P00533 25-645).
T13 construct: Bought Fc chimera; Fc part of the bought chimera not given
Briefly: MSD ECL titration, Fab 2383 nM, blank 344.

The target of test [14] is T14, rHuman Notch-1/Fc Chimera, CF (R&D Systems Cat#3647-TK) (human, UniProt P46531 19-526).
T14 construct: Bought Fc chimera; Fc part of the bought chimera not given
Briefly: MSD ECL titration, Fab 595.8 nM, blank 285.

In test [15] the target is T10, rHuman IGF-1 sR (insulin-like growth …). Kind of test: MSD ECL titration, Fab 595.8 nM, blank 285.
For test [16], the target named is T15, rHuman P-Cadherin/Fc Chimera, CF (R&D Systems Cat#861-PC) (human, UniProt P22223 108-654).
T15 construct: Bought Fc chimera; Fc part of the bought chimera not given
Briefly: MSD ECL titration, Fab 595.8 nM, blank 285.

The target in test [17] is T11, Recombinant Human DLL4 (R&D Systems …). Briefly: MSD ECL titration, Fab 595.8 nM, blank 285.
Test [18] has as its target T13, rHuman EGF R/Fc Chimera, CF (R&D …). Kind of test: MSD ECL titration, Fab 595.8 nM, blank 285.
The target of test [19] is T16, rHuman HGF R/c-MET/Fc Chimera, CF (R&D Systems Cat#358-MT/CF) (human, UniProt P08581 25-932).
T16 construct: Bought Fc chimera; also called HGF R/Fc; Fc part of the bought chimera not given
Kind of test: MSD ECL titration, Fab 595.8 nM, blank 285.
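Note: blank spot per well as comparator with Hit at signal to blank ratio of 4 or more.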

B1: Fab VH1-46_IGHD3-10*01_IGHJ4*01 & B3_IGKJ1*01 (Fab, V domains shown)
VH: QVQLVQSGAEVKKPGASVKVSCKASGYTFTSYYMHWVRQAPGQGLEWMGIINPSGGSTSYAQKFQGRVTMTRDTSTSTVYMELSSLRSEDTAVYYCAREYYYGSGSYYNDYFDYWGQGTLVTVSS
VL: not shown
notes: also called IGHV1-46*01
As to B1, the ECL signal in [1] was found to be 1820; in test [2] it was 254; in [3] it was 216; in test [4], 201; in test [5], 268; in test [6], 404. The results for the ECL signal in test [7], in [8] and in test [9] were 296, 289 and 270, respectively.

B2: Fab VH1-46_IGHD6-6*01_IGHJ1*01 & L6_IGKJ1*01 (Fab, V domains shown)
VH: QVQLVQSGAEVKKPGASVKVSCKASGYTFTSYYMHWVRQAPGQGLEWMGIINPSGGSTSYAQKFQGRVTMTRDTSTSTVYMELSSLRSEDTAVYYCAREEYSSSSAEYFQHWGQGTLVTVSS
VL: not shown
notes: Expressed in E. coli as Fab: heavy chain with CH1 plus Flag and His tags from Plasmid A, kappa light chain constant region from Plasmid C; also called Fab No. 1
As to B2, the ECL signal in test [10] amounted to 527; in [11] it was 11800; in test [12], 454; in [13], 621; in [14] it was 306; in test [15] it was 335. The ECL signal in [16] turned out to be 617; in test [17], 17200; in test [18], 403; in [19] it was 353.
